T1: Kj12A N-terminal docking domain (Xenorhabdus stockiae KJ12.1)
T1 construct: also called Kj12A-NDD; source: E. coli BL21-Gold(DE3), purified (HisTrap, Ulp1 cleavage, anion exchange, SEC)
T1 chain: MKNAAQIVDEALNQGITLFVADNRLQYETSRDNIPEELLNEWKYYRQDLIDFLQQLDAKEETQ

T2: Kj12B N-terminal docking domain (Xenorhabdus stockiae KJ12.1)
T2 construct: also called Kj12B-NDD; source: E. coli BL21-Gold(DE3), purified (HisTrap, Ulp1 cleavage, anion exchange, SEC)
T2 chain: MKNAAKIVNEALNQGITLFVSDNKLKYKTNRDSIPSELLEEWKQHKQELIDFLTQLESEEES

B1: Kj12B C-terminal docking domain peptide (peptide)
peptide: LLKEKRKHFQAEQNSSQEYLRGEI
notes: also called Kj12B-CDD; source: synthetic peptide, bought: JPT Peptides Technologies GmbH
B2: Kj12B-CDDshort peptide (peptide)
peptide: QEYLRGEI
notes: source: synthetic peptide (Fmoc solid-phase synthesis, preparative HPLC)
B3: Kj12B-CDDshort G1566A peptide (peptide)
peptide: QEYLRAEI
notes: as for B2
B4: Kj12C N-terminal docking domain (domain or fragment)
chain: MIDAAQIVDEALEQGITLFVVNNRLQYETSRDSIPTELLNKWKQHKQELIDFLNQLDSEEQTK
notes: Kj12C of Xenorhabdus stockiae KJ12.1, N-terminal docking domain, 63 residues; 15N-labelled for the NMR titrations; also called Kj12C-NDD; source: E. coli BL21-Gold(DE3), purified (HisTrap, Ulp1 cleavage, anion exchange, SEC); not shown: His6-SUMO, N-terminal, cleaved
B5: Kj12B-CDDshort L1564A peptide (peptide)
peptide: QEYARGEI
notes: as for B2

Assays:
Experiment in all cases: ITC; 50 µM NDD (or Kj12C construct) in the cell titrated with 1 mM CDD peptide; 20 °C; 50 mM sodium phosphate pH 6.5, 100 mM NaCl; one site binding model; three independent titrations
Conditions in all cases: both partners purified
[1] = target: T1, Kj12A N-terminal docking domain
[2] = target: T2, Kj12B N-terminal docking domain
[3] = target: B4
[4] = target: B4
[5] = target: T3, Kj12B-CDDshort R1565E peptide (Xenorhabdus stockiae KJ12.1, R1565E (stands in the printed letters))
T3 construct: source: synthetic peptide (Fmoc solid-phase synthesis, preparative HPLC)

| Binder | stoichiometry N [3] | Kd [4] | further results |
| --- | --- | --- | --- |
| B1 | 0.9 ± 0.12 sites | – | stoichiometry N [1]: 0.81 ± 0.01 sites; stoichiometry N [2]: 1 sites |
| B2 | 1.05 ± 0.11 sites | – | – |
| B3 | – | > 100 µM | – |
| B4 | – | – | Kd [5]: > 100 µM |
| B5 | – | > 100 µM | – |
